Residue numbers refer to the chain shown, from its start. Names and notes keep the numbering of the source.

Assay [1] deals with T1, rat insulin receptor substrate IRS1 (rat, UniProt P35570 1-1235, limits assumed).
T1 construct: The legend says Rat IRS1; also called Rat IRS1
T1 sequence (looked up): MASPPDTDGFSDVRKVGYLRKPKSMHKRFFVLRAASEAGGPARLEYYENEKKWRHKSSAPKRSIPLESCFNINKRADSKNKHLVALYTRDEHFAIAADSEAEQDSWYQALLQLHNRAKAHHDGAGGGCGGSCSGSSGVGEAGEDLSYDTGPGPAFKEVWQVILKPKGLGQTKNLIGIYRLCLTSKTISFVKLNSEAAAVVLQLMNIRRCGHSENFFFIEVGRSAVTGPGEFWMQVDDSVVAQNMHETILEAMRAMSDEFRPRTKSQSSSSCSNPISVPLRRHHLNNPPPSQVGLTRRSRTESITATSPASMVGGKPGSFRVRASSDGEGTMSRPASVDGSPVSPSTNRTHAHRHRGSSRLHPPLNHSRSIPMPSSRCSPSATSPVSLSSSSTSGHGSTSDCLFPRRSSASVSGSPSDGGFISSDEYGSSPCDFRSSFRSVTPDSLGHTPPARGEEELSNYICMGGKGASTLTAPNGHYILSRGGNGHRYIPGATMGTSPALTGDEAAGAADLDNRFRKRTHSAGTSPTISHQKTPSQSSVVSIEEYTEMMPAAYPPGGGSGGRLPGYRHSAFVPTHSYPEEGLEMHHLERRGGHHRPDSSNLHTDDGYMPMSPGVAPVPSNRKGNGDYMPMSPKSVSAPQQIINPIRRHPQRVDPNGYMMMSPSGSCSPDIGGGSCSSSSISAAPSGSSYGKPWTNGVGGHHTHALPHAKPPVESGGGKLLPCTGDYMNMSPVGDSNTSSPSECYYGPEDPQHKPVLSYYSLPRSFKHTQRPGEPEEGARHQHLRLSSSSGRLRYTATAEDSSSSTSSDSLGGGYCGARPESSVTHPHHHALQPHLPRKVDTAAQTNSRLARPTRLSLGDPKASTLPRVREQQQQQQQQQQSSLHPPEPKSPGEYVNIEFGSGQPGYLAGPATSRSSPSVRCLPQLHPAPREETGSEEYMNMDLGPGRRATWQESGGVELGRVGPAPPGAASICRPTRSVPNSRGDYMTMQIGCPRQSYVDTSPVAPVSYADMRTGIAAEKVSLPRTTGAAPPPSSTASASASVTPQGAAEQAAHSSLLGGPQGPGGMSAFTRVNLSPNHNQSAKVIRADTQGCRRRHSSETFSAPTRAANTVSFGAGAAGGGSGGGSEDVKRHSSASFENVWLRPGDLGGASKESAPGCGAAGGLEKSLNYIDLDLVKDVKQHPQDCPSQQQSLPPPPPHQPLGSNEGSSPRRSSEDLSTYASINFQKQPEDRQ
Put plainly: SPR, purified IRS1 immobilized, purified MG53 in mobile phase. (Surface plasmon resonance follows binding to a sensor surface in real time, without labels.)

The target in assay [2] is T1, rat insulin receptor substrate IRS1. As to the kind of experiment: SPR, Rat IRS1 immobilized (500 RU), MG53-S255A in the mobile phase [lower panel].

B1: mouse wild-type MG53 (enzyme)
chain: MSAAPGLLRQELSCPLCLQLFDAPVTAECGHSFCRACLIRVAGEPAADGTVACPCCQAPTRPQALSTNLQLSRLVEGLAQVPQGHCEEHLDPLSIYCEQDRTLVCGVCASLGSHRGHRLLPAAEAQARLKTQLPQQKMQLQEACMRKEKTVAVLEHQLVEVEETVRQFRGAVGEQLGKMRMFLAALESSLDREAERVRGDAGVALRRELSSLNSYLEQLRQMEKVLEEVADKPQTEFLMKFCLVTSRLQKILSESPPPARLDIQLPVISDDFKFQVWKKMFRALMPALEELTFDPSSAHPSLVVSSSGRRVECSDQKAPPAGEDTRQFDKAVAVVAQQLLSQGEHYWEVEVGDKPRWALGVMAADASRRGRLHAVPSQGLWLLGLRDGKILEAHVEAKEPRALRTPERPPARIGLYLSFADGVLAFYDASNPDVLTPIFSFHERLPGPVYPIFDVCWHDKGKNAQPLLLVGPEQEQA
notes: Expressed from a plasmid in HEK293T cells for co-IP and degradation assays; purified protein in the mobile phase for SPR; also called TRIM72; Mitsugumin 53
By Kd is commonly meant the free concentration of one partner at which half of the binding sites on the other are occupied at equilibrium, for simple one-to-one binding. Take B1: in assay [1], the affinity, expressed as Kd, was 64.2 nM.

B2: mouse MG53 S255A mutant (enzyme)
chain: B1 chain with S255A
Consider B2, for which the binding result in assay [2] is given as “no binding (tested: 1000 nM)”.
